The target in test [1] is DNA topoisomerase I (TOP1), full-length recombinant (UniProt P11387).
For test [2], the target named is DNA topoisomerase IIα (TOP2A), recombinant (UniProt P11388).
Chain of UniProt P11388 (P11388 whole entry): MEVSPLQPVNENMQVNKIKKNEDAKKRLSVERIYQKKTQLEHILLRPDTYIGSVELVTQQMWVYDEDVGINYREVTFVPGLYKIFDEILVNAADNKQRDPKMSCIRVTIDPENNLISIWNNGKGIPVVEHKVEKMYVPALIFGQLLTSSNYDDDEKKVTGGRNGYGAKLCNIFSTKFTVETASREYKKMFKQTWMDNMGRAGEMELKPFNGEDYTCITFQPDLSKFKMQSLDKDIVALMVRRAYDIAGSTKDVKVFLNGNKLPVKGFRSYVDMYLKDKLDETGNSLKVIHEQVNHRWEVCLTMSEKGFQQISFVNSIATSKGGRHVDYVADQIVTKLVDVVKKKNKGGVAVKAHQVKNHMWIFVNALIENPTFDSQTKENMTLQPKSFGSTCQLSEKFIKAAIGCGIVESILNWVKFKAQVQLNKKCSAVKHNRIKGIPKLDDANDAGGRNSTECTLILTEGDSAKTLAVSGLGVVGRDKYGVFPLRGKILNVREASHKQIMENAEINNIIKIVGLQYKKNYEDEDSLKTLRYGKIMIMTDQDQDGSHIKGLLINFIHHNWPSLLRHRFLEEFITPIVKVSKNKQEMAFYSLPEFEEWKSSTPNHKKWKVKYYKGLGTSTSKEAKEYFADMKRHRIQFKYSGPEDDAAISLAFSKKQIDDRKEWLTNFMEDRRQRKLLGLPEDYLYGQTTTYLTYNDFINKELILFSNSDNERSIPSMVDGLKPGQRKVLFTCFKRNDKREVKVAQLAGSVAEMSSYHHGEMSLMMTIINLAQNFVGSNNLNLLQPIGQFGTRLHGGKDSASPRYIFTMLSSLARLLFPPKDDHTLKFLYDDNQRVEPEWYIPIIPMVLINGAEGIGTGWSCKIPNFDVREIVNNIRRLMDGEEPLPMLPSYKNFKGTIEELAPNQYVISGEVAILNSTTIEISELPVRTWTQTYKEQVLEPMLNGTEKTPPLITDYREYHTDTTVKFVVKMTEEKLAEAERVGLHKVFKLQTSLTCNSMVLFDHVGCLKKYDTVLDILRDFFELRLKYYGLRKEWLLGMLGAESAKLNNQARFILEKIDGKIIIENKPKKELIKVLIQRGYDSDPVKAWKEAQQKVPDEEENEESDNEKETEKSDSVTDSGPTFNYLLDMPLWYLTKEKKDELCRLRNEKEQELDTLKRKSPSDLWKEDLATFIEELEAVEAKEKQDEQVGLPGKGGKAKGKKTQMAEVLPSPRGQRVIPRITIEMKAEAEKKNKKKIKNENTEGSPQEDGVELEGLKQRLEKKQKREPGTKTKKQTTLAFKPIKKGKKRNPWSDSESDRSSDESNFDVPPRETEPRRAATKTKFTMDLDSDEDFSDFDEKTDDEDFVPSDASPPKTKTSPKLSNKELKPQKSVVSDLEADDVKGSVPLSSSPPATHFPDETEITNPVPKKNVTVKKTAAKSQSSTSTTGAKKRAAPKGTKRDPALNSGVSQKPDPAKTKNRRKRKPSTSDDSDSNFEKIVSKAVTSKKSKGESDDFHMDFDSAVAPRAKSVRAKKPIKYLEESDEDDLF

Chain of UniProt P11387 (P11387 whole entry): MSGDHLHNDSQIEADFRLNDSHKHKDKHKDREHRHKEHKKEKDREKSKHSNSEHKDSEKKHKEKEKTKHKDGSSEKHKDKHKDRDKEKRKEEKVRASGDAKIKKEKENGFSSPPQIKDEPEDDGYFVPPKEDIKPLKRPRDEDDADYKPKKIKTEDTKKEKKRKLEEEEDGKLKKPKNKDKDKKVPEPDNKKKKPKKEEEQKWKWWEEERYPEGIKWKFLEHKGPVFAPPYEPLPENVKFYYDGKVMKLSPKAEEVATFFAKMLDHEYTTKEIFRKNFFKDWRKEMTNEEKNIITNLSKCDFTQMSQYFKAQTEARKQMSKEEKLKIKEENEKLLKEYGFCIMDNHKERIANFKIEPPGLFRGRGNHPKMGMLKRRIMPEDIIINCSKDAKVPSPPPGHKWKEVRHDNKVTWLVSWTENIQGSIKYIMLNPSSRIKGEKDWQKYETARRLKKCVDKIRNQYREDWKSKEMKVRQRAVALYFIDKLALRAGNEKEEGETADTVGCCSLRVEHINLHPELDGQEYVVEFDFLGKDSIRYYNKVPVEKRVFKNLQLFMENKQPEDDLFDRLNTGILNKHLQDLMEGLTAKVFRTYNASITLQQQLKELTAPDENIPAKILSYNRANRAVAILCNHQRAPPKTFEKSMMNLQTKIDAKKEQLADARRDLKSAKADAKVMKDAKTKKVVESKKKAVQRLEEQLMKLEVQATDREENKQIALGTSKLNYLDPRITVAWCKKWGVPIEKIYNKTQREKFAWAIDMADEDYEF

On to “BLM wild-type (WT), recombinant (from UniProt P54132 1-1417) (enzyme)”, for which the stimulation of BLM unwinding of RNA:DNA substrate by a two-fold molar excess of TOP1 (specific activity with against without TOP1) in test [1] was found to be 1.5 fold.

“BLM-Δ1332–1349, recombinant (from UniProt P54132 1-1417) (enzyme)”: the stimulation of BLM unwinding of dsDNA substrate by 7 nM TOP2A (fold change relative to minus TOP2A) in test [2] stood at 3 fold.

Source of the values: paper PMC5042399.
